These results are taken from article PMC5757173.

Assay [1] has as its target FITC (fluorescein isothiocyanate)-labeled RAR (RARΔAB, His-tag). Put plainly: fluorescence polarisation; fluorescence anisotropy; FEZ1 (1 nM to 5000 nM) titrated into 50 nM FITC-labeled RAR; 20 mM Tris pH 8.0, 50 mM NaCl, 2 mM EDTA; 10 °C; presence of all-trans retinoic acid (AT).
The target is the same in assay [2]. Put plainly: fluorescence polarisation; fluorescence anisotropy; FEZ1 (1 nM to 5000 nM) titrated into 50 nM FITC-labeled RAR; 20 mM Tris pH 8.0, 50 mM NaCl, 2 mM EDTA; 10 °C; absence of all-trans retinoic acid. In general terms: In fluorescence polarisation assays a small probe gives low polarisation when free and higher when bound to something large.

B1: Fasciculation and elongation zeta-1 (1-392) protein fused to an N-terminal 6xHis-tag (natural protein)
chain: MEAPLVSLDEEFEDLRPSCSEDPEEKPQCFYGSSPHHLEDPSLSELENFSSEIISFKSMEDLVNEFDEKLNVCFRNYNAKTENLAPVKNQLQIQEEEETLQDEEVWDALTDNYIPSLSEDWRDPNIEALNGNCSDTEIHEKEEEEFNEKSENDSGINEEPLLTADQVIEEIEEMMQNSPDPEEEEEVLEEEDGGETSSQADSVLLQEMQALTQTFNNNWSYEGLRHMSGSELTELLDQVEGAIRDFSEELVQQLARRDELEFEKEVKNSFITVLIEVQNKQKEQRELMKKRRKEKGLSLQSSRIEKGNQMPLKRFSMEGISNILQSGIRQTFGSSGTDKQYLNTVIPYEKKASPPSVEDLQMLTNILFAMKEDNEKVPTLLTDYILKVLCPT
Take B1: the Kd in assay [1] worked out at 3.8 µM; in assay [2], 3.4 µM.

As usually defined, the Kd is the free concentration of one partner at which half of the binding sites on the other are occupied at equilibrium, for simple one-to-one binding.
